This is an account of results in article PMC4040697 (Cell Death & Disease, 2014).

Usually Kd stands for the concentration at which binding is half-saturated. The low end stands for a tighter complex, the high end for a looser complex.

Assay [1] deals with T1, glutathione transferase P1-1 (GSTP1-1), native (UniProt P09211 1-210). Put plainly: ELISA. A general note: An ELISA detects its analyte on a solid surface through an enzyme-linked reagent.
The target in assay [2] is T1, glutathione transferase P1-1 (GSTP1-1), …. Put plainly: ELISA. This is another data set of the same source.
Assay [3] addresses 'Oxidized' GSTP1-1 (oxidatively inactivated) (UniProt P09211 1-210, one intra-chain disulfide bond between cysteine 47 and 101). Kind of assay: ELISA.
Assay [4] deals with T1, glutathione transferase P1-1 (GSTP1-1), …. Put plainly: ELISA. This is another data set of the same source.
The target is the same in assay [5]. Kind of assay: ELISA. The source holds these as a separate data set.
Assay [6] has the same target. Put plainly: ELISA. This is another data set of the same source.
The target is the same in assay [7]. Kind of assay: ELISA. The source holds these as a separate data set.
For assay [8] the target is unchanged. Kind of assay: ELISA. The source holds these as a separate data set.
For assay [9] the target is unchanged. Put plainly: other fluorescence titration.
Assay [10] shares this target. Put plainly: other fluorescence titration. The source holds these as a separate data set.

T1 sequence (P09211 whole entry): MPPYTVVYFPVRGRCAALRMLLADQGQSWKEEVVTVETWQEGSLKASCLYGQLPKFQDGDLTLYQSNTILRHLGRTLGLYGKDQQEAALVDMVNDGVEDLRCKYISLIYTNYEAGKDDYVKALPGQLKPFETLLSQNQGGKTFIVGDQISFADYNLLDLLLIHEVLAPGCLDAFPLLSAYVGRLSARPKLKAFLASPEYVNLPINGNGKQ
Sequence of 'Oxidized' GSTP1-1 (oxidatively inactivated) (P09211 whole entry): as above

B1: His-tagged C-terminal domain of TRAF2 (residues 310–501) (domain or fragment, human, UniProt Q12933 310-501, looked up)
chain: DQDKIEALSSKVQQLERSIGLKDLAMADLEQKVLEMEASTYDGVFIWKISDFARKRQEAVAGRIPAIFSPAFYTSRYGYKMCLRIYLNGDGTGRGTHLSLFFVVMKGPNDALLRWPFNQKVTLMLLDQNNREHVIDAFRPDVTSSSFQRPVNDMNIASGCPLFCPVSKMEAKNSYVRDDAIFIKAIVDLTGL
For the molecule B1, the Kd is 2700 nM in assay [1]; 290 nM in [2]; 1700 nM in assay [3]; 1200 nM in assay [4]; no less than 5000 nM in assay [5]; 490 nM in assay [6]. Moreover, the figures for the Kd in assay [7] and in assay [8] were 930 nM and 2600 nM, respectively.

B2: Dansylated TRAF2 (C-terminal domain, residues 310–501) (domain or fragment, human, UniProt Q12933 310-501, looked up)
chain: B1 chain
modifications: dansyl, mole ratio of dansyl/TRAF2 2 : 1; labelled residues not stated
As to B2, the Kd was 4600 nM in [9] and 300 nM in assay [10].
